From article PMC9958131 (Nature Communications, 2023) come the findings set out here.

The test system of the test is PAD2 and PAD4. The test is described as follows: Citrullination site mapping of fibrinogen and vimentin by trypsin digestion and mass spectrometry (protein-level sheet, one search over native, PAD2-cit and PAD4-cit samples). It is filed as biochemical, human. As to conditions: modified residues found per protein; Deamidated [R..] = deamidated (citrullinated) arginine positions; trypsin digest, Sequest HT; not split by sample (native, PAD2-citrullinated, PAD4-citrullinated fibrinogen and vimentin). From the text:
Description: Raw mass spectrometry data for proteolytic mapping of fibrinogen, vimentin, and hnRNP A2/B1 by cathepsins B, S, and H (sheets 1-6); citrullination site mapping of fibrinogen and vimentin by trypsin digestion (sheets 7-8); and the natural antigen processing assay with native, PAD2-citrullinated (PAD2-cit), and PAD4-citrullinated (PAD4-cit) fibrinogen (sheets 9-11).

B1: P12035 (protein, UniProt P12035 1-628, looked up)
chain: MSRQASKTSGGGSQGFSGRSAVVSGSSRMSCVAHSGGAGGGAYGFRSGAGGFGSRSLYNLGGNKSISISVAAGGSRAGGFGGGRSSCAFAGGYGGGFGSGYGGGFGGGFGGGRGMGGGFGGAGGFGGAGGFGGAGGFGGPGGFGGSGGFGGPGSLGSPGGFGPGGFPGGIQEVTINQSLLQPLNVEIDPQIGQVKAQEREQIKTLNNKFASFIDKVRFLEQQNKVLETKWNLLQQQGTSSISGTNNLEPLFENHINYLRSYLDNILGERGRLDSELKNMEDLVEDFKKKYEDEINKRTAAENEFVTLKKDVDSAYMNKVELQAKVDALIDEIDFLRTLYDAELSQMQSHISDTSVVLSMDNNRSLDLDSIIAEVRAQYEDIAQRSKAEAEALYQTKLGELQTTAGRHGDDLRNTKSEIIELNRMIQRLRAEIEGVKKQNANLQTAIAEAEQHGEMALKDANAKLQELQAALQQAKDDLARLLRDYQELMNVKLALDVEIATYRKLLEGEEYRMSGECPSAVSISVVSSSTTSASAGGYGGGYGGGMGGGLGGGFSAGGGSGSGFGRGGGGGIGGGFGGGSSGFSGGSGFGSISGARYGVSGGGFSSASNRGGSIKFSQSSQSSQRYSR
modifications: full-length
Consider B1, for which the Modifications result is “Deamidated [R217]”.

B2: Q7Z3Y7 (protein)
chain: MSLQFSNGSRHVCLRSGAGSVRPLNGGAGFAGSSACGGSVAGSEFSCALGGGLGSVPGGSHAGGALGNAACIGFAGSEGGLLSGNEKVTMQNLNDRLASYLDNVRALEEANAELERKIKGWYEKYGPGSCRGLDHDYSRYHLTIEDLKNKIISSTTTNANVILQIDNARLAADDFRLKYENELTLHQNVEADINGLRRVLDELTLCRTDQELQYESLSEEMTYLKKNHEEEMKALQCAAGGNVNVEMNAAPGVDLAVLLNNMRAEYEALAEQNRKDAEAWFNEKSASLQQQISHDSGAATFARSQLTEMRRTLQTLEIQLQSLMATKHSLECSLTETESNYCTQLAQIQAQIGALEEQLHQVRTETEGQKLEYEHLLDVKVHLEKEIETYCRLIDGDGNSCSKSKGFGSGSPGNSSKDLSKTTLVKTVVEELDQRGKVLSSRIHSIEEKTSKMTNGKTEQRVPF
Consider B2, for which the Modifications entry is “Deamidated [R96]”.

B3: B1AHL2 (protein)
chain: MERAAPSRRVPLPLLLLGGLALLAAGVDADVLLEACCADGHRMATHQKDCSLPYATESKECRAVGLASLCQDLNGAWAVWKVGRASQAEGTASARAQRRGMVQEQCCHSQLEELHCATGISLANEQDRCATPHGDNASLEATFVKRCCHCCLLGRAAQAQGQSCEYSLMVGYQCGQVFQACCVKSQETGDLDVGGLQETDKIIEVEEEQEDPYLNDRCRGGGPCKQQCRDTGDEVVCSCFVGYQLLSDGVSCEDVNECITGSHSCRLGESCINTVGSFRCQRDSSCGTGYELTEDNSCKDIDECESGIHNCLPDFICQNTLGSFRCRPKLQCKSGFIQDALGNCIDINECLSISAPCPIGHTCINTEGSYTCQKNVPNCGRGYHLNEEGTRCVDVDECAPPAEPCGKGHRCVNSPGSFRCECKTGYYFDGISRMCVDVNECQRYPGRLCGHKCENTLGSYLCSCSVGFRLSVDGRSCEDINECSSSPCSQECANVYGSYQ
As to B3, the Modifications entry was “Deamidated [R217; R219; R325; R327; R381; R391; R505; R623; R643; R671]”.

B4: Q8N1N4 (protein)
chain: MSLSPCRAQRGFSARSACSARSRGRSRGGFSSRGGFSSRSLNSFGGCLEGSRGSTWGSGGRLGVRFGEWSGGPGLSLCPPGGIQEVTINQNLLTPLKIEIDPQFQVVRTQETQEIRTLNNQFASFIDKVRFLEQQNKVLETKWHLLQQQGLSGSQQGLEPVFEACLDQLRKQLEQLQGERGALDAELKACRDQEEEYKSKYEEEAHRRATLENDFVVLKKDVDGVFLSKMELEGKLEALREYLYFLKHLNEEELGQLQTQASDTSVVLSMDNNRYLDFSSIITEVRARYEEIARSSKAEAEALYQTKYQELQVSAQLHGDRMQETKVQISQLHQEIQRLQSQTENLKKQNASLQAAITDAEQRGELALKDAQAKVDELEAALRMAKQNLARLLCEYQELTSTKLSLDVEIATYRRLLEGEECRMSGECTSQVTISSVGGSAVMSGGVGGGLGSTCGLGSGKGSPGSCCTSIVTGGSNIILGSGKDPVLDSCSVSGSSAGS
As to B4, the Modifications result was “Deamidated [R130]”.

B5: Q5T749 (protein)
chain: MCDQQQIQCRLPLQQCCVKGPSFCSSQSPFAQSQVVVQAPCEMQIVDCPASCPVQVCQVSDQAPCQSQTTQVKCQSKTKQVKGQAQCQSKTTQVKGQAASQSQTSSVQSQAPCQSEVSYVQCEASQPVQTCFVECAPVCYTETCYVECPVQNYVPCPAPQPVQMYRGRPAVCQPQGRFSTQCQYQGSYSSCGPQFQSRATCNNYTPQFQLRPSYSSCFPQYRSRTSFSPCVPQCQTQGSYGSFTEQHRSRSTSRCLPPPRRLQLFPRSCSPPRRFEPCSSSYLPLRPSEGFPNYCTPPRRSEPIYNSRCPRRPISSCSQRRGPKCRIEISSPCCPRQVPPQRCPVEIPPIRRRSQSCGPQPSWGASCPELRPHVEPRPLPSFCPPRRLDQCPESPLQRCPPPAPRPRLRPEPCISLEPRPRPLPRQLSEPCLYPEPLPALRPTPRPVPLPRPGQCEIPEPRPCLQPCEHPEPCPRPEPIPLPAPCPSPEPCRETWRSPSP
For the molecule B5, the Modifications result was “Deamidated [R211; R248; R371; R554]”.

B6: P01871 (protein)
chain: GSASAPTLFPLVSCENSPSDTSSVAVGCLAQDFLPDSITFSWKYKNNSDISSTRGFPSVLRGGKYAATSQVLLPSKDVMQGTDEHVVCKVQHPNGNKEKNVPLPVIAELPPKVSVFVPPRDGFFGNPRKSKLICQATGFSPRQIQVSWLREGKQVGSGVTTDQVQAEAKESGPTTYKVTSTLTIKESDWLGQSMFTCRVDHRGLTFQQNASSMCVPDQDTAIRVFAIPPSFASIFLTKSTKLTCLVTDLTTYDSVTISWTRQNGEAVKTHTNISESHPNATFSAVGEASICEDDWNSGERFTCTVTHTDLPSPLKQTISRPKGVALHRPDVYLLPPAREQLNLRESATITCLVTGFSPADVFVQWMQRGQPLSPEKYVTSAPMPEPQAPGRYFAHSILTVSEEEWNTGETYTCVVAHEALPNRVTERTVDKSTGKPTLYNVSLVMSDTAGTCY
With B6, the Modifications entry was “Deamidated [R423]”.

B7: Q12805 (protein, UniProt Q12805 1-493, looked up)
chain: MLKALFLTMLTLALVKSQDTEETITYTQCTDGYEWDPVRQQCKDIDECDIVPDACKGGMKCVNHYGGYLCLPKTAQIIVNNEQPQQETQPAEGTSGATTGVVAASSMATSGVLPGGGFVASAAAVAGPEMQTGRNNFVIRRNPADPQRIPSNPSHRIQCAAGYEQSEHNVCQDIDECTAGTHNCRADQVCINLRGSFACQCPPGYQKRGEQCVDIDECTIPPYCHQRCVNTPGSFYCQCSPGFQLAANNYTCVDINECDASNQCAQQCYNILGSFICQCNQGYELSSDRLNCEDIDECRTSSYLCQYQCVNEPGKFSCMCPQGYQVVRSRTCQDINECETTNECREDEMCWNYHGGFRCYPRNPCQDPYILTPENRCVCPVSNAMCRELPQSIVYKYMSIRSDRSVPSDIFQIQATTIYANTINTFRIKSGNENGEFYLRQTSPVSAMLVLVKSLSGPREHIVDLEMLTVSSIGTFRTSSVLRLTIIVGPFSF
modifications: full-length
B7: the Modifications result was “Deamidated [R185; R208; R227; R328; R345]”.

B8: Fibrinogen b: β chain of human fibrinogen, RA autoantigen; native or citrullinated by PAD2 or PAD4 (protein)
chain: MKRMVSWSFHKLKTMKHLLLLLLCVFLVKSQGVNDNEEGFFSARGHRPLDKKREEAPSLRPAPPPISGGGYRARPAKAAATQKKVERKAPDAGGCLHADPDLGVLCPTGCQLQEALLQQERPIRNSVDELNNNVEAVSQTSSSSFQYMYLLKDLWQKRQKQVKDNENVVNEYSSELEKHQLYIDETVNSNIPTNLRVLRSILENLRSKIQKLESDVSAQMEYCRTPCTVSCNIPVVSGKECEEIIRKGGETSEMYLIQPDSSVKPYRVYCDMNTENGGWTVIQNRQDGSVDFGRKWDPYKQGFGNVATNTDGKNYCGLPGEYWLGNDKISQLTRMGPTELLIEMEDWKGDKVKAHYGGFTVQNEANKYQISVNKYRGTAGNALMDGASQLMGENRTMTIHNGMFFSTYDRDNDGWLTSDPRKQCSKEDGGGWWYNRCHAANPNGRYYWGGQYTWDMAKHGTDDGVVWMNWKGSWYSMRKMSMKIRPFFPQQ
In the case of B8, the Modifications entry was “Deamidated [R53; R60; R72; R74; R158; R196; R199; R224; R246; R267; R285; R334; R376; R395; R410; R421; R436; R445; R478]”.

B9: Q02413 (protein, UniProt Q02413 1-1049, looked up)
chain: MDWSFFRVVAMLFIFLVVVEVNSEFRIQVRDYNTKNGTIKWHSIRRQKREWIKFAAACREGEDNSKRNPIAKIHSDCAANQQVTYRISGVGIDQPPYGIFVINQKTGEINITSIVDREVTPFFIIYCRALNSMGQDLERPLELRVRVLDINDNPPVFSMATFAGQIEENSNANTLVMILNATDADEPNNLNSKIAFKIIRQEPSDSPMFIINRNTGEIRTMNNFLDREQYGQYALAVRGSDRDGGADGMSAECECNIKILDVNDNIPYMEQSSYTIEIQENTLNSNLLEIRVIDLDEEFSANWMAVIFFISGNEGNWFEIEMNERTNVGILKVVKPLDYEAMQSLQLSIGVRNKAEFHHSIMSQYKLKASAISVTVLNVIEGPVFRPGSKTYVVTGNMGSNDKVGDFVATDLDTGRPSTTVRYVMGNNPADLLAVDSRTGKLTLKNKVTKEQYNMLGGKYQGTILSIDDNLQRTCTGTININIQSFGNDDRTNTEPNTKITTNTGRQESTSSTNYDTSTTSTDSSQVYSSEPGNGAKDLLSDNVHFGPAGIGLLIMGFLVLGLVPFLMICCDCGGAPRSAAGFEPVPECSDGAIHSWAVEGPQPEPRDITTVIPQIPPDNANIIECIDNSGVYTNEYGGREMQDLGGGERMTGFELTEGVKTSGMPEICQEYSGTLRRNSMRECREGGLNMNFMESYFCQKAYAYADEDEGRPSNDCLLIYDIEGVGSPAGSVGCCSFIGEDLDDSFLDTLGPKFKKLADISLGKESYPDLDPSWPPQSTEPVCLPQETEPVVSGHPPISPHFGTTTVISESTYPSGPGVLHPKPILDPLGYGNVTVTESYTTSDTLKPSVHVHDNRPASNVVVTERVVGPISGADLHGMLEMPDLRDGSNVIVTERVIAPSSSLPTSLTIHHPRESSNVVVTERVIQPTSGMIGSLSMHPELANAHNVIVTERVVSGAGVTGISGTTGISGGIGSSGLVGTSMGAGSGALSGAGISGGGIGLSSLGGTASIGHMRSSSDHHFNQTIGSASPSTARSRITKYSTVQYSK
modifications: full-length
Regarding B9, the Modifications entry was “Deamidated [R416; R607]”.
